Data published in patent US20230174642A1, “AFFINITY-MATURATED ANTI-ASIC1a ANTIBODIES” (SHANGHAITECH UNIVERSITY, priority 2019, published 2023).
Substitutions are numbered along the chain they refer to.

T1: hASIC1a on CHO-K1 cells stably expressing hASIC1a (human, UniProt P78348 1-528)
T1 sequence (looked up): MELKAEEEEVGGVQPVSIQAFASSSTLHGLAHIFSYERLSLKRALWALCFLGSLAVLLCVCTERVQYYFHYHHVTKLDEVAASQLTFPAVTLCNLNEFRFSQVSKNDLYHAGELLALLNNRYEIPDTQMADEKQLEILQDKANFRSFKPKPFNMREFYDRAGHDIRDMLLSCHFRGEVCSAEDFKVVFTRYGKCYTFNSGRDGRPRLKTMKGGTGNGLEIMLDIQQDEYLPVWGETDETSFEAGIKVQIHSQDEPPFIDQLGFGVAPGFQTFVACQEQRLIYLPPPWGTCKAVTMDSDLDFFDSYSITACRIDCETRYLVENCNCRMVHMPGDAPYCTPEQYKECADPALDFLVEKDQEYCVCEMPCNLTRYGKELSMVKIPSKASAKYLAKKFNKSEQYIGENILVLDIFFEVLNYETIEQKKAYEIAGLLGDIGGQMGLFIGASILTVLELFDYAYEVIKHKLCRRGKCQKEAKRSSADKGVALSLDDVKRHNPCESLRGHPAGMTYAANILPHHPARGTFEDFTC

T2: hASIC1a-mCherry fusion on a stable cell line (human, UniProt P78348 1-528)
T2 sequence (looked up): T1 sequence (looked up)

T3: human ASIC1b (hASIC1b-eYFP) (Homo sapiens, UniProt P78348)
T3 construct: expressed in transfected cells; host or cells: CHO-K1 (transient)
T3 sequence (P78348 1-562 isoform P78348-3): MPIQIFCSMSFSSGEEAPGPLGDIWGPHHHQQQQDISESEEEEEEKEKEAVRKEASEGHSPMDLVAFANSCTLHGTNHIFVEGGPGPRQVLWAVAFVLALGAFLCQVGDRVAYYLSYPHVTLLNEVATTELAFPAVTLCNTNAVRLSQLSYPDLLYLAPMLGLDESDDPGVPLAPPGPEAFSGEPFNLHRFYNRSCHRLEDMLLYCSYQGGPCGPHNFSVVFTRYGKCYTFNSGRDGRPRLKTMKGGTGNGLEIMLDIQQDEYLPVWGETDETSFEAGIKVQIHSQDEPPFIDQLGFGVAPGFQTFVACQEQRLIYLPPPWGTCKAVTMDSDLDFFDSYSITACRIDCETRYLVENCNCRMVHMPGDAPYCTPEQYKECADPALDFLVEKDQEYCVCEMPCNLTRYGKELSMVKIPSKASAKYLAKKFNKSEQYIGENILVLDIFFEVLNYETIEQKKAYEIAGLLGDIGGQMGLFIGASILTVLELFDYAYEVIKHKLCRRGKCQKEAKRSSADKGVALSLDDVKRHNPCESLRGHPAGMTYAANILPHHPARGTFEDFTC

T4: human ASIC2a (hASIC2a-eYFP) (Homo sapiens, UniProt Q16515)
T4 construct: expressed in transfected cells; host or cells: CHO-K1 (transient)
T4 sequence (Q16515 1-512): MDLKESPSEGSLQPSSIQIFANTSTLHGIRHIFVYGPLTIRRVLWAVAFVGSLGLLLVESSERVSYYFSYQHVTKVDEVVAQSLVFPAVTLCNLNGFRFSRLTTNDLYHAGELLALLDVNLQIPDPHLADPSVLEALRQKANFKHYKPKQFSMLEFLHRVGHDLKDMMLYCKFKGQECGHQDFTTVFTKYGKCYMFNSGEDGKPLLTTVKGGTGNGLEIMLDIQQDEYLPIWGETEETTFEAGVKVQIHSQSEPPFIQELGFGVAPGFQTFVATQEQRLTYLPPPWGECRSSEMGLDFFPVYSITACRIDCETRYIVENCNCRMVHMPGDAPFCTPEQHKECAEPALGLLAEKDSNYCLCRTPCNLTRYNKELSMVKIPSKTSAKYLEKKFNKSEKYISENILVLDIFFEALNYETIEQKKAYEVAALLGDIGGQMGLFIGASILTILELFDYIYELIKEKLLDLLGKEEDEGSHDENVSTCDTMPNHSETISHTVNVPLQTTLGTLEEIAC

T5: human ASIC3a (hASIC3a-eYFP) (Homo sapiens, UniProt Q9UHC3)
T5 construct: expressed in transfected cells; host or cells: CHO-K1 (transient)
T5 sequence (Q9UHC3 1-531): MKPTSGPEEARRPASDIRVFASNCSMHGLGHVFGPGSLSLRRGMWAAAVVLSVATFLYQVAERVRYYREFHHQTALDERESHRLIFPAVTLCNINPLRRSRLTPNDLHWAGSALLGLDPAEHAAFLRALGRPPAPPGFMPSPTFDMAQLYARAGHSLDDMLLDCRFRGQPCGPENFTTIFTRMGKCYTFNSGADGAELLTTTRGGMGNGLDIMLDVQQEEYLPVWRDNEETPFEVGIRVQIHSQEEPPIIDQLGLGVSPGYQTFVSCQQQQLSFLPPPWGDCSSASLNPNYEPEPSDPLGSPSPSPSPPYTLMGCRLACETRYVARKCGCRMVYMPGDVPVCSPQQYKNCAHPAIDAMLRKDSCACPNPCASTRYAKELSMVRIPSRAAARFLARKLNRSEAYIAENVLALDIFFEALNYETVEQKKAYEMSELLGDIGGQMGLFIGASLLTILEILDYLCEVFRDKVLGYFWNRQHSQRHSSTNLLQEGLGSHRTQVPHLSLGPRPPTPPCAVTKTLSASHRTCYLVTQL

B1: ASC06-03-IgG1 (antibody, V domains shown)
VH: QVQLQQSGGGLVQPGGSLRLSCAASGFTFSSYAMSWVRQAPGKGLEWVSAISGSGGSTYYADSVKGRFTISRDNSKNTLYLQMNSLRAEDTAVYYCAKDSFYGRAKGSWGQGTLVTVSS
VL: QSALTQPASVSGSPGQSITISCTGTSSDVGAYNYVSWYQQQPGKAPKLMIYGVSNRPSGVSNRFSGSKSGNAASLTISGLQAEDEADYYCSSYTSSSTYVFGTGTKLTVLG
notes: Full length IgG1
B2: ASC06-02-IgG1 (antibody, V domains shown)
VH: B1 VH with Y102F
VL: B1 VL
notes: Full length IgG1
B3: ASC06-04-IgG1 (antibody, V domains shown)
VH: B1 VH with S108V
VL: B1 VL
notes: Full length IgG1
B4: ASC06-01-IgG1 (antibody, V domains shown)
VH: B1 VH with F101Y, Y102F, R104Y, A105S, S108D
VL: B1 VL
notes: Full length IgG1
B5: ASC06-IgG1 (antibody, V domains shown)
VH: B1 VH with R104Y, A105S, S108D
VL: B1 VL
notes: Tested as full length IgG1; also called WT antibody ASC06-IgG1; parental ASC06-IgG1 antibody
B6: ASC06-04-IgG1: affinity-matured ASC06 derivative, VH-CDR3 DSFYGRAKGV (SEQ ID NO: 17) (antibody, V domains shown)
VH: B1 VH with S108V
VL: B1 VL
B7: ASC06-01-IgG1: affinity-matured ASC06 derivative, VH-CDR3 DSYFGYSKGD (SEQ ID NO: 11) (antibody, V domains shown)
VH: B1 VH with F101Y, Y102F, R104Y, A105S, S108D
VL: B1 VL
B8: ASC06-IgG1: parental (WT) ASIC1a-specific antagonist antibody; VL SEQ ID NO: 2, VH SEQ ID NO: 7, VH-CDR3 DSFYGYSKGD (antibody, V domains shown)
VH: B1 VH with R104Y, A105S, S108D
VL: B1 VL
modifications: IgG1 constant regions; Amino acid sequence VH of ASC06; Amino acid sequence VL of ASC06
B9: ASC06-03-IgG1: affinity-matured ASC06 derivative, VH-CDR3 DSFYGRAKGS (SEQ ID NO: 15) (antibody, V domains shown)
VH: B1 VH
VL: B1 VL
B10: ASC06-02-IgG1: affinity-matured ASC06 derivative, VH-CDR3 DSFFGRAKGS (SEQ ID NO: 13) (antibody, V domains shown)
VH: B1 VH with Y102F
VL: B1 VL

The molecules below were run against T1, hASIC1a on CHO-K1 cells stably … (assay: cell-based or functional assay).

| Molecule | Percent inhibition of the acid induced-hASIC1a currents, 30 nM antibody (Patch Clamp) | Percent inhibition of the acid induced-hASIC1a currents, 100 nM antibody (Patch Clamp) |
| --- | --- | --- |
| B1 | 79.4% | 89.7% |
| B2 | 94.6% | 97.2% |
| B3 | – | 96.7% |
| B4 | 20% | 49% |
| B5 | 35.5% | 55.5% |

These molecules were tested against T2, hASIC1a-mCherry fusion on a stable cell … (assay: cell-based or functional assay).

| Molecule | IC50 for the inhibition of acid induced ASIC1a-mediated calcium influx, FLIPR-based assay |
| --- | --- |
| B1 | 2.61 nM |
| B2 | 1.97 nM |
| B4 | 2.24 nM |
| B5 | 2.11 nM |

These molecules were tested against T3, human ASIC1b (hASIC1b-eYFP) (assay: FACS-based binding assay, transiently transfected CHO-K1 cells (isotype selectivity)).
Text: (§1) To examine the ASIC isotype selectivity of ASC06-IgG1 affinity-matured antibodies, plasmids encoding fusion proteins of eYFP with isoforms of […] were constructed. These plasmids included those encoding human ASIC1b (hASIC1b-eYFP), human ASIC2a (hASIC2a-eYFP), and human ASIC3a (hASIC3a-eYFP). CHO-K1 cells were transiently transfected with these plasmids and used in a FACS-based binding assay disclosed herein. Binding of ASC06-IgG1 to CHO-K1 cells expressing human ASIC1a-eYFP (hASIC1a-eYFP) was used as a positive control (data not shown and FIG. 2), and an isotype control was used as a negative control for binding (NC).

| Molecule | binding to the hASIC1b isoform |
| --- | --- |
| B6 | no detectable binding |
| B7 | no detectable binding |
| B8 | no detectable binding |
| B9 | no detectable binding |
| B10 | no detectable binding |

Each molecule was assayed against T4, human ASIC2a (hASIC2a-eYFP) in the same assay as above.
Text: as §1

| Molecule | binding to the hASIC2a isoform |
| --- | --- |
| B6 | no detectable binding |
| B7 | no detectable binding |
| B8 | no detectable binding |
| B9 | no detectable binding |
| B10 | no detectable binding |

The molecules below were run against T5, human ASIC3a (hASIC3a-eYFP) in the same assay as above.
Text: as §1

| Molecule | binding to the hASIC3a isoform |
| --- | --- |
| B6 | no detectable binding |
| B7 | no detectable binding |
| B8 | no detectable binding |
| B9 | no detectable binding |
| B10 | no detectable binding |
